In patent publication US11471462B2, “Compositions and methods for detecting and treating diabetes” (THE BROAD INSTITUTE, INC., priority 2016, dated 2022):

Tested on: SLC16A11
Test: SLC16A11 protein-protein interaction study (immunoprecipitation, quantitative mass spectrometry)
Design: species or system human
Conditions: putative SLC16A11^REF interaction partners; immunoprecipitation from HEK293T cells vs empty vector control; Blandt-Altman
Text: Alternatively, these variants may result in reduced transport because they disrupt protein-protein interactions responsible for correct SLC16A11 function. To explore this possibility, SLC16A11 was immunoprecipitated from HEK293T cells expressing either REF or T2D risk SLC16A11-V5 or empty vector control and quantitative mass spectrometry was used to define the SLC16A11 interactome.
Another mechanism through which the variants could affect activity is through disruption of protein-protein interactions. To explore this possibility, quantitative mass spectrometry-based protein-protein interaction studies were performed to define the SLC16A11 interactome and evaluate if the T2D risk coding variants alter any interactions.
Beads were then washed once with lysis buffer and three times with wash buffer. After the last wash, residual wash buffer was removed, 10 μL fresh wash buffer was added, and beads were stored at −80° C. until analysis by the Proteomics Platform at the Broad Institute, as detailed in the “Proteomics Methods for SLC16A11 Protein Interaction Studies” below.
The beads from immunopurification were washed once with IP lysis buffer, then three times with PBS, the three different lysates of each replicate were resuspended in 90 uL digestion buffer (2M Urea, 50 mM Tris HCl), 2 ug of sequencing grade trypsin added, 1 hour shaking at 700 rpm. The supernatant was removed and placed in a fresh tube. The beads were then washed twice with 50 uL digestion buffer and combined with the supernatant. The combined supernatants were reduced (2 uL 500 mM DTT, 30 minutes, RT), alkylated (4 uL 500 mM IAA, 45 minutes, dark) and a longer overnight digestion performed: 2 ug (4 uL) trypsin, shake o/n, The samples were then quenched with 20 uL 10% FA and desalted on 10 mg SepPak columns.
Desalted peptides were labelled with iTRAQ reagents according to the manufacturer's instructions (AB Sciex, Foster City, Calif.). Peptides were dissolved in 30 μl of 0.5 M TEAB pH 8.5 solution and labeling reagent was added in 70 ul of ethanol. After 1 h incubation the reaction was stopped with 50 mM Tris/HCl pH 7.5. Differentially labelled peptides were mixed and subsequently desalted on 10 mg SepPak columns.
Reconstituted peptides were separated on an online nanoflow EASY-nLC 1000 UHPLC system (Thermo Fisher Scientific) and analyzed on a benchtop Orbitrap Q Exactive Plus mass spectrometer (Thermo Fisher Scientific). The peptide samples were injected onto a capillary column (Picofrit with 10 μm tip opening/75 μm diameter, New Objective, PF360-75-10-N-5) packed in-house with 20 cm C18 silica material (1.9 μm ReproSil-Pur C18-AQ medium, Dr. Maisch GmbH, r119.aq). The UHPLC setup was connected with a custom-fit microadapting tee (360 μm, IDEX Health & Science, UH-753), and capillary columns were heated to 50° C. in column heater sleeves (Phoenix-ST) to reduce backpressure during UHPLC separation. Injected peptides were separated at a flow rate of 200 nL/min with a linear 80 min gradient from 100% solvent A (3% acetonitrile, 0.1% formic acid) to 30% solvent B (90% acetonitrile, 0.1% formic acid), followed by a linear 6 min gradient from 30% solvent B to 90% solvent B. Each sample was run for 120 min, including sample loading and column equilibration times. The Q Exactive instrument was operated in the data-dependent mode acquiring HCD MS/MS scans (R=17,500) after each MS1 scan (R=70,000) on the 12 top most abundant ions using an MS1 ion target of 3×10^6 ions and an MS2 target of 5×10^4 ions. The maximum ion time utilized for the MS/MS scans was 120 ms; the HCD-normalized collision energy was set to 27; the dynamic exclusion time was set to 20 s, and the peptide match and isotope exclusion functions were enabled.
All mass spectra were processed using the Spectrum Mill software package v6.0 pre-release (Agilent Technologies) which includes modules developed by us for iTRAQ-based quantification. […]

| Molecule | BA log fold change |
| --- | --- |
| AUP1 (protein) MELPSGPGPERLFDSHRLPGDCFLLLVLLLYAPVGFCLLVLRLFLGIHVFLVSCALPDSVLRRFVVRTMCAVLGLVARQEDSGLRDHSVRVLISNHVTPFDHNIVNLLTTCSTPLLNSPPSFVCWSRGFMEMNGRGELVESLKRFCASTRLPPTPLLLFPEEEATNGREGLLRFSSWPFSIQDVVQPLTLQVQRPLVSVTVSDASWVSELLWSLFVPFTVYQVRWLRPVHRQLGEANEEFALRVQQLVAKELGQTGTRLTPADKAEHMKRQRHPRLRPQSAQSSFPPSPGPSPDVQLATLAQRVKEVLPHVPLGVIQRDLAKTGCVDLTITNLLEGAVAFMPEDITKGTQSLPTASASKFPSSGPVTPQPTALTFAKSSWARQESLQERKQALYEYARRRFTERRAQEAD | 1.10 |
| ADCK4 (protein) MWLKVGGLLRGTGGQLGQTVGWPCGALGPGPHRWGPCGGSWAQKFYQDGPGRGLGEEDIRRAREARPRKTPRPQLSDRSRERKVPASRISRLANFGGLAVGLGLGVLAEMAKKSMPGGRLQSEGGSGLDSSPFLSEANAERIVQTLCTVRGAALKVGQMLSIQDNSFISPQLQHIFERVRQSADFMPRWQMLRVLEEELGRDWQAKVASLEEVPFAAASIGQVHQGLLRDGTEVAVKIQYPGIAQSIQSDVQNLLAVLKMSAALPAGLFAEQSLQALQQELAWECDYRREAACAQNFRQLLANDPFFRVPAVVKELCTTRVLGMELAGGVPLDQCQGLSQDLRNQICFQLLTLCLRELFEFRFMQTDPNWANFLYDASSHQVTLLDFGASREFGTEFTDHYIEVVKAAADGDRDCVLQKSRDLKFLTGFETKAFSDAHVEAVMILGEPFATQGPYDFGSGETARRIQDLIPVLLRHRLCPPPEETYALHRKLAGAFLACAHLRAHIACRDLFQDTYHRYWASRQPDAATAGSLPTKGDSWVDPS | 1.11 |
| VDAC2 (protein) MSWCNELRLPALKQHSIGRGLESHITMCIPPSYADLGKAARDIFNKGFGFGLVKLDVKTKSCSGVEFSTSGSSNTDTGKVTGTLETKYKWCEYGLTFTEKWNTDNTLGTEIAIEDQICQGLKLTFDTTFSPNTGKKSGKIKSSYKRECINLGCDVDFDFAGPAIHGSAVFGYEGWLAGYQMTFDSAKSKLTRNNFAVGYRTGDFQLHTNVNDGTEFGGSIYQKVCEDLDTSVNLAWTSGTNCTRFGIAAKYQLDPTASISAKVNNSSLIGVGYTQTLRPGVKLTLSALVDGKSINAGGHKVGLALELEA | 1.14 |
| TECR (protein) MKHYEVEILDAKTREKLCFLDKVEPHATIAEIKNLFTKTHPQWYPARQSLRLDPKGKSLKDEDVLQKLPVGTTATLYFRDLGAQISWVTVFLTEYAGPLFIYLLFYFRVPFIYGHKYDFTSSRHTVVHLACICHSFHYIKRLLETLFVHRFSHGTMPLRNIFKNCTYYWGFAAWMAYYINHPLYTPPTYGAQQVKLALAIFVICQLGNFSIHMALRDLRPAGSKTRKIPYPTKNPFTWLFLLVSCPNYTYEVGSWIGFAIMTQCLPVALFSLVGFTQMTIWAKGKHRSYLKEFRDYPPLRMPIIPFLL | 1.10 |
| MAGED1 (protein) MAQKMDCGAGLLGFQNPDACRAVCHPLPQPPASTLPLSAFPTLCDPPYSQLRDPPAVLSCYCTPLGASPAPAEASVEDSALLMQTLMEAIQISEAPPTNQATAAASPQSSQPPTANEMADIQVSAAAARPKSAFKVQNATTKGPNGVYDFSQAHNAKDVPNTQPKAAFKSQNATPKGPNAAYDFSQAATTGELAANKSEMAFKAQNATTKVGPNATYNFSQSLNANDLANSRPKTPFKAWNDTTKAPTADTQTQNVNQAKMATSQADIETDPGISEPDGATAQTSADGSQAQNLESRTIIRGKRTRKINNLNVEENSSGDQRRAPLAAGTWRSAPVPVTTQNPPGAPPNVLWQTPLAWQNPSGWQNQTARQTPPARQSPPARQTPPAWQNPVAWQNPVIWPNPVIWQNPVIWPNPIVWPGPVVWPNPLAWQNPPGWQTPPGWQTPPGWQGPPDWQGPPDWPLPPDWPLPPDWPLPTDWPLPPDWIPADWPIPPDWQNLRPSPNLRPSPNSRASQNPGAAQPRDVALLQERANKLVKYLMLKDYTKVPIKRSEMLRDIIREYTDVYPEIIERACFVLEKKFGIQLKEIDKEEHLYILISTPESLAGILGTTKDTPKLGLLLVILGVIFMNGNRASEAVLWEALRKMGLRPGVRHPLLGDLRKLLTYEFVKQKYLDYRRVPNSNPPEYEFLWGLRSYHETSKMKVLRFIAEVQKRDPRDWTAQFMEAADEALDALDAAAAEAEARAEARTRMGIGDEAVSGPWSWDDIEFELLTWDEEGDFGDPWSRIPFTFWARYHQNARSRFPQTFAGPIIGPGGTASANFAANFGAIGFFWVE | 1.09 |
| XPO5 (protein) AMDQVNALCEQLVKAVTVMMDPNSTQRYRLEALKFCEEFKEKCPICVPCGLRLAEKTQVAIVRHFGLQILEHVVKFRWNGMSRLEKVYLKNSVMELIANGTLNILEEENHIKDALSRIVVEMIKREWPQHWPDMLIELDTLSKQGETQTELVMFILLRLAEDVVTFQTLPPQRRRDIQQTLTQNMERIFSFLLNTLQENVNKYQQVKTDTSQESKAQANCRVGVAALNTLAGYIDWVSMSHITAENCKLLEILCLLLNEQELQLGAAECLLIAVSRKGKLEDRKPLMVLFGDVAMHYILSAAQTADGGGLVEKHYVFLKRLCQVLCALGNQLCALLGADSDVETPSNFGKYLESFLAFTTHPSQFLRSSTQMTWGALFRHEILSRDPLLLAIIPKYLRASMTNLVKMGFPSKTDSPSCEYSRFDFDSDEDFNAFFNSSRAQQGEVMRLACRLDPKTSFQMAGEWLKYQLSTFLDAGSVNSCSAVGTGEGSLCSVFSPSFVQWEAMTLFLESVITQMFRTLNREEIPVNDGIELLQMVLNFDTKDPLILSCVLTNVSALFPFVTYRPEFLPQVFSKLFSSVTFETVEESKAPRTRAVRNVRRHACSSIIKMCRDYPQLVLPNFDMLYNHVKQLLSNELLLTQMEKCALMEALVLISNQFKNYERQKVFLEELMAPVASIWLSQDMHRVLSDVDAFIAYVGTDQKSCDPGLEDPCGLNRARMSFCVYSILGVVKRTCWPTDLEEAKAGGFVVGYTSSGNPIFRNPCTEQILKLLDNLLALIRTHNTLYAPEMLAKMAEPFTKALDMLDAEKSAILGLPQPLLELNDSPVFKTVLERMQRFFSTLYENCFHILGKAGPSMQQDFYTVEDLATQLLSSAFVNLNNIPDYRLRPMLRVFVKPLVLFCPPEHYEALVSPILGPLFTYLHMRLSQKWQVINQRSLLCGEDEAADENPESQEMLEEQLVRMLTREVMDLITVCCVSKKGADHSSAPPADGDDEEMMATEVTPSAMAELTDLGKCLMKHEDVCTALLITAFNSLAWKDTLSCQRTTSQLCWPLLKQVLSGTLLADAVTWLFTSVLKGLQMHGQHDGCMASLVHLAFQIYEALRPRYLEIRAVMEQIPEIQKDSLDQFDCKLLNPSLQKVADKRRKDQFKRLIAGCIGKPLGEQFRKEVHIKNLPSLFKKTKPMLETEVLDNDGGGLATIFEP | 1.14 |
| PHGDH (protein) AFANLRKVLISDSLDPCCRKILQDGGLQVVEKQNLSKEELIAELQDCEGLIVRSATKVTADVINAAEKLQVVGRAGTGVDNVDLEAATRKGILVMNTPNGNSLSAAELTCGMIMCLARQIPQATASMKDGKWERKKFMGTELNGKTLGILGLGRIGREVATRMQSFGMKTIGYDPIISPEVSASFGVQQLPLEEIWPLCDFITVHTPLLPSTTGLLNDNTFAQCKKGVRVVNCARGGIVDEGALLRALQSGQCAGAALDVFTEEPPRDRALVDHENVISCPHLGASTKEAQSRCGEEIAVQFVDMVKGKSLTGVVNAQALTSAFSPHTKPWIGLAEALGTLMRAWAGSPKGTIQVITQGTSLKNAGNCLSPAVIVGLLKEASKQADVNLVNAKLLVKEAGLNVTTSHSPAAPGEQGFGECLLAVALAGAPYQAVGLVQGTTPVLQGLNGAVFRPEVPLRRDLPLLLFRTQTSDPAMLPTMIGLLAEAGVRLLSYQTSLVSDGETWHVMGISSLLPSLEAWKQHVTEAFQFHF | 1.11 |
